Data published in PMC3492551 (Nature structural & molecular biology, 2012).
Values belong to the molecule of their own block, whether it stands above or below them.

Legend:
MPP8 50-118 = MPP8 50-118 (UniProt Q99549); assay: fluorescence polarization titration; conditions: reference: H3K9me3 peptide; sites S10
UHRF1 126-280 [1] = target: UHRF1 126-280 (UniProt Q96T88); assay: histone peptide microarray; conditions: sites S10
UHRF1 126-280 [2] = target: UHRF1 126-280 (UniProt Q96T88); assay: biotin-peptide streptavidin pulldown, western blot; conditions: sites S10
[3] = target: T1, UHRF1 tandem Tudor domain (TTD), residues 126-280 (human, UniProt Q96T88 126-280); assay: NMR titration
T1 sequence (looked up): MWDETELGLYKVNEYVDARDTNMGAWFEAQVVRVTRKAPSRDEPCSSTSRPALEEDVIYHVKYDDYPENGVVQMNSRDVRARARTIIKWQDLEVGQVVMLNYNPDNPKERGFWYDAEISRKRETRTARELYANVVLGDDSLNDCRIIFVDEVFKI

Molecule: histone H3 (from UniProt P68431) H3K9me2S10p peptide
binding against the reference (UHRF1 126-280 [1]; reference: H3K9me2 peptide): same | binding against the reference (UHRF1 126-280 [2]; reference: H3K9me2 peptide): same

Molecule: histone H3 (from UniProt P68431) H3K9me3S10p peptide
binding against the reference (UHRF1 126-280 [1]; reference: H3K9me3 peptide): same | binding against the reference (UHRF1 126-280 [2]; reference: H3K9me3 peptide): same

Second part, the molecule after the results:

KD (MPP8 50-118): lost; reference 0.23
Molecule: histone H3 1-20 (from UniProt P68431) H3K9me3S10p peptide

binding result [3]: binds
B1: doubly modified H3 peptide (residues 1-11, ARTKQTARKme3SpT) (peptide)
peptide: ARTKQTARKST
modifications: not fully specified; trimethyl-lysine at 9; phosphoserine at 10
